The text below walks through data of patent US20220251186A1 (TAVOTEK BIOTHERAPEUTICS HONG KONG, published 2022).

Test [1] has as its target T1, recombinant human TSLP (R&D Systems) (human, UniProt Q969D9 29-159).
T1 construct: also called thymic stromal lymphopoietin
Description: ELISA, plate coated with 1 µg/mL recombinant human TSLP, antibody titrated, HRP-conjugated secondary antibody, OD 450 nm. (An ELISA detects its analyte on a solid surface through an enzyme-linked reagent.)

In test [2] the target is T2, Cynomolgus monkey TSLP (Cynomolgus monkey, UniProt A0A7N9CAT7 29-159).
T2 construct: also called cynomolgus TSLP
Put plainly: ELISA, plate coated with cynomolgus monkey TSLP, antibody titrated, OD 450 nm.

For test [3], the target named is T1, recombinant human TSLP (R&D Systems). Put plainly: cell-based or functional assay.
The target of test [4] is T3, mouse TSLP (R&D Systems) (mouse, UniProt Q9JIE6 20-140).
T3 sequence (looked up): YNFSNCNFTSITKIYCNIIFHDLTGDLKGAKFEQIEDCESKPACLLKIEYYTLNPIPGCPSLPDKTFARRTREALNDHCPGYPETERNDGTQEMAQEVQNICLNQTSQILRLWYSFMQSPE
Put plainly: ELISA, plate coated with mouse TSLP, antibody titrated, HRP-conjugated anti-mouse secondary antibody, OD 450 nm.

For test [5], the target named is T1, recombinant human TSLP (R&D Systems). Put plainly: ELISA, 1 µg/mL recombinant human TSLP coated, HRP anti-mouse detection.
Test [6] deals with T4, recombinant mouse FcRn (R&D Systems) (mouse, UniProt Q61559 22-297; P01887 21-119, limits assumed).
T4 sequence (looked up) 1: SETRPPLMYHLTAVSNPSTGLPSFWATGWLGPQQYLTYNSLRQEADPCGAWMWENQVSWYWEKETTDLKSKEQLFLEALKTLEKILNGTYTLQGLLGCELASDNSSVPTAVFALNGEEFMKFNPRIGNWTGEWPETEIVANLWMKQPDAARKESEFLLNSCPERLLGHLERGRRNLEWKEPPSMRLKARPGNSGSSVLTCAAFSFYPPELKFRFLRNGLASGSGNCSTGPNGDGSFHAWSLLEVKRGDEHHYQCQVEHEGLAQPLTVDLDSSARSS
T4 sequence (looked up) 2: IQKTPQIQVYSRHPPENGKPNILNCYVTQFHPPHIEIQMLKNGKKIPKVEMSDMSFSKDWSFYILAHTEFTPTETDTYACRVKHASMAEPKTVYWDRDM
Put plainly: ELISA at pH 6.0, 1 µg/mL recombinant mouse FcRn coated, HRP anti-human detection.
Description: 1 μg/mL recombinant mouse FcRn (R&D Systems) were coated on ELISA plate.

Substitutions are numbered along the chain they refer to. Names may count otherwise.

B1: TAVO6264 (antibody, human IgG2, kappa)
heavy: QVQLVQSGAEVKKPGSSVKVSCKASGYTFSSYWVNWVRQAPGQGLEWIGQIYPGDGDTDYAQKFQGRATLTADKSTSTAYMELSSLRSEDTAVYFCARGTYYNNYYGTDYWGQGTTVTVSSASTKGPSVFPLAPCSRSTSESTAALGCLVKDYFPEPVTVSWNSGALTSGVHTFPAVLQSSGLYSLSSVVTVPSSNFGTQTYTCNVDHKPSNTKVDKTVERKCCVECPPCPAPPVAGPSVFLFPPKPKDTLMISRTPEVTCVVVDVSHEDPEVQFNWYVDGVEVHNAKTKPREEQFNSTFRVVSVLTVVHQDWLNGKEYKCKVSNKGLPAPIEKTISKTKGQPREPQVYTLPPSREEMTKNQVSLTCLVKGFYPSDIAVEWESNGQPENNYKTTPPMLDSDGSFFLYSKLTVDKSRWQQGNVFSCSVMHEALHNHYTQKSLSLSPGK
light: DIQLTQSPSFLSASVGDRVTITCSVSSSISSSNLHWYQQKPGKAPKPWIYGTSNLASGVPSRFSGSGSGTEYTLTISSLQPEDAATYYCQQWSSYPLTFGQGTKLEIKRTVAAPSVFIFPPSDEQLKSGTASVVCLLNNFYPREAKVQWKVDNALQSGNSQESVTEQDSKDSTYSLSSTLTLSKADYEKHKVYACEVTHQGLSSPVTKSFNRGEC
notes: Human IgG2 Fc; also called humanized TAVO202 antibody 202H2/202L3 with human IgG2 Fc
Consider B1, for which the “EC50 (read off the curve)” value in test [1] is around 2 ng/mL.

B2: TAVO7264 (antibody, human IgG1, kappa)
heavy: QVQLVQSGAEVKKPGSSVKVSCKASGYTFSSYWVNWVRQAPGQGLEWIGQIYPGDGDTDYAQKFQGRATLTADKSTSTAYMELSSLRSEDTAVYFCARGTYYNNYYGTDYWGQGTTVTVSSASTKGPSVFPLAPSSKSTSGGTAALGCLVKDYFPEPVTVSWNSGALTSGVHTFPAVLQSSGLYSLSSVVTVPSSSLGTQTYICNVNHKPSNTKVDKKVEPKSCDKTHTCPPCPAPEFEGGPSVFLFPPKPKDTLMISRTPEVTCVVVAVSHEDPEVKFNWYVDGVEVHNAKTKPREEQYNSTYRVVSVLTVLHQDWLNGKEYKCKVSNKALPAPIEKTISKAKGQPREPQVYTLPPSREEMTKNQVSLTCLVKGFYPSDIAVEWESNGQPENNYKTTPPVLDSDGSFLLYSKLTVDKSRWQQGNVFSCSVMHEALHNHYTQKSLSLSPGK
light: B1 light
notes: also called humanized TAVO202 antibody 202H2/202L3 with human IgG1 Fc (L234F, L235E, D265A, F405L)
On to B2, for which the binding result in test [2] was “no binding (tested: 1 µg/mL)”.

B3: TAVO6265 (antibody, human IgG2, kappa)
heavy: B1 heavy
light: EIVLTQSPDFQSVTPKEKVTITCSVSSSISSSNLHWYQQKPDQSPKPWIYGTSNLASGVPSRFSGSGSGTDYTLTINSLEAEDAATYYCQQWSSYPLTFGQGTKLEIKRTVAAPSVFIFPPSDEQLKSGTASVVCLLNNFYPREAKVQWKVDNALQSGNSQESVTEQDSKDSTYSLSSTLTLSKADYEKHKVYACEVTHQGLSSPVTKSFNRGEC
notes: Human IgG2 Fc; also called humanized TAVO202 antibody 202H2/202L4 with human IgG2 Fc
In the case of B3, the concentration for a half-maximal effect (EC50 (read off the curve)) in test [1] is around 2 ng/mL.

B4: mouse monoclonal anti-human TSLP antibody TAVO202 (antibody, V domains shown)
VH: QVQLQQSGAELVRPGSSVKISCKASGYTFSSYWVNWVKQRPGQGLEWIGQIYPGDGDTDYNGKFKGKATLTADKSSSTAYMQLSSLTSEDSAVYFCARGTYYNNYYGTDYWGQGTSVTVSS
VL: EIVLTQSPALMAASPGEKVTITCSVSSSISSSNLHWYQQKSETSPKPWIYGTSNLASGVPVRFSGSGSGTSYSLTISSMEAEDAATYYCQQWSSYPLTFGGGTKLEIK
notes: Mouse monoclonal antibody from hybridoma screening; also called mouse anti-TSLP antibody TAVO202
For the molecule B4, in test [3], the “IC50, neutralization of TSLP-driven STAT5 luciferase reporter gene expression (10 ng/mL human TSLP)” value was found to be 20 ng/mL and the “IC50, neutralization of TSLP-driven proliferation of transfected BAF3 cells (0.5 ng/mL human TSLP)” value turned out to be 6.6 ng/mL. The binding result in test [4] is recorded as “no binding (tested: about 5 µg/mL)”. The half-maximal effective concentration (EC50) in test [5] is 2.4 ng/mL.

B5: TAVO9765 (antibody, human IgG1, kappa, L234A L235A)
heavy: B2 heavy with F238A, E239A, A269D, L409F, M432L, N438S
light: B3 light
notes: also called humanized TAVO202 antibody 202H2/202L4 with human IgG1 Fc (L234A, L235A, M428L, N434S)
Consider B5, for which, in test [6], the “fold better potency than TAVO7265” value was around 10 fold.

B6: TAVO7265 (antibody, human IgG1, kappa)
heavy: B2 heavy
light: B3 light
notes: also called humanized TAVO202 antibody 202H2/202L4 with human IgG1 Fc (L234F, L235E, D265A, F405L)
For B6, the binding result in test [2] is given as “no binding (tested: 1 µg/mL)”.

What is called EC50 (read off the curve) is the midpoint of the concentration-response curve. In general, EC50 refers to the concentration that produces a half-maximal response.
